Data as given in patent publication US20220227846A1.

Assays:
Assay in all cases: SPR, calculated KD (Qdat software)
[1] = molecular target: N-terminal biotinylated Aβ42 monomers (UniProt P05067)
Aβ42 fibrils = Aβ42 fibrils (UniProt P05067)
[2] = molecular target: C-terminal biotinylated Aβ42 ADDLs/globulomers (UniProt P05067)
[3] = molecular target: C-terminal biotinylated Aβ42 monomers (UniProt P05067)
[4] = molecular target: Aβ42 oligomers (ADDLs/globulomers) (UniProt P05067)
Aβ42 oligomers (ADDLs/globulomers), sequence (P05067 672-713 limits assumed): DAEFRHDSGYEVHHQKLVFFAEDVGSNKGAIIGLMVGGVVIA

N-terminal biotinylated Aβ42 monomers, sequence (P05067 672-713 limits assumed): as above
Aβ42 fibrils, sequence (P05067 672-713 limits assumed): as above
C-terminal biotinylated Aβ42 monomers, sequence (P05067 672-713 limits assumed): as above
C-terminal biotinylated Aβ42 ADDLs/globulomers, sequence (P05067 672-713 limits assumed): as above

Substance: 6E10 (mouse mAb to Aβ amino acids 1-16; BioLegend, San Diego, CA) (antibody)
- Kd [1]: 158 nM
- Kd (Aβ42 fibrils): 56 nM
- Kd [2]: 50 nM
- Kd [3]: 47 nM
- Kd [4]: 69 nM
